Results taken from patent CN111234017A (NANJING YOUMAI BIOTECHNOLOGY CO LTD, dated 2020).

B1: 人-鼠嵌合抗体MT02-L4 (human-mouse chimeric anti-human PD-L1 antibody MT02-L4) (antibody, human IgG1, kappa, V domains shown)
VH: EVQLQESGPSLVKPSQTLSLTCSVTGDSITSGYWSWIRKFPGNNLDYMGYISYTGSTYYSPSLIRRMSINRDTSKNQFYLQLNSVTTEDTATYYCAKYENWKEGYFDIWGAGTTVTVSS
VL: DIVMTRSQKFMSTSVGDRVSVTCKASQNVGINVAWYQQKAGQSPKALIHSATQRYSGVPDRFTGGGSGTDFTLTIDDVQSADLAEYFCQQYYGYPLTFGAGTRLELKR
notes: Mouse 13B8 variable regions joined to the human IgG1 heavy constant region and the kappa constant region
B2: 人源化抗体MT02-C4 (humanized anti-human PD-L1 antibody MT02-C4) (antibody, human IgG1, kappa, V domains shown)
VH: QVQLQESGPGLVKPSETLSLTCTVSGDSITSGYWSWIRQPPGKGLEYMGYISYTGSTYYSPSLIRRMTISRDTSKNQFSLKLSSVTAADTAVYYCAKYENWKEGYFDIWGQGTLVTVSS
VL: DIQMTQSPSSLSASVGDRVTITCKASQNVGINVAWYQQKPGKAPKALIYSATQRYSGVPSKFSGSGSGTDFTLTISSLQPEDFATYFCQQYYGYPLTFGQGTRLEIKR
notes: Humanized (CDR grafting with back mutations), human IgG1 / kappa

What was measured:
[1] = biological target: 食蟹猴PD-L1蛋白 (cynomolgus monkey PD-L1 protein) (cynomolgus monkey); experiment: ELISA on coated cynomolgus PD-L1 protein
[2] = biological target: T1, human PD-L1 expressed on cells (CT26 transfected with human PD-L1, HCC827, Raji-PD-L1, CHO-PDL1-OKT3) (human, UniProt Q9NZQ7 19-290); experiment: flow cytometry on CT26 cells transfected with human PD-L1
T1 construct: whole, on cells; For CT26 the plasmid encodes human PD-L1 and HCC827 is a human tumour line; also called 过表达PD-L1的CT26细胞; HCC827细胞
T1 sequence (Q9NZQ7 19-290): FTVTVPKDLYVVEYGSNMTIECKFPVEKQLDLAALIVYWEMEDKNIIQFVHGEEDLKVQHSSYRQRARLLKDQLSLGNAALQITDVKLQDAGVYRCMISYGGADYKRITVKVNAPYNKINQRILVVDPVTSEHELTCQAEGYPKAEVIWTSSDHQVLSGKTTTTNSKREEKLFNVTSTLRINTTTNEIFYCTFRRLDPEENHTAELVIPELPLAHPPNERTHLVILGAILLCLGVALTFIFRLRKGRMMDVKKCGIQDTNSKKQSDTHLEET

[3] = biological target: T1, human PD-L1 expressed on cells (CT26 …); experiment: flow cytometry on HCC827 cells naturally overexpressing PD-L1
[4] = biological target: T2, 人PD-L1蛋白 (human PD-L1 protein) (human, UniProt Q9NZQ7 19-238, limits assumed); experiment: ELISA, human PD-L1 protein coated at 1 μg/mL, HRP secondary antibody, OD450
T2 construct: also called CD274; B7-H1
T2 sequence (Q9NZQ7 19-238 limits assumed): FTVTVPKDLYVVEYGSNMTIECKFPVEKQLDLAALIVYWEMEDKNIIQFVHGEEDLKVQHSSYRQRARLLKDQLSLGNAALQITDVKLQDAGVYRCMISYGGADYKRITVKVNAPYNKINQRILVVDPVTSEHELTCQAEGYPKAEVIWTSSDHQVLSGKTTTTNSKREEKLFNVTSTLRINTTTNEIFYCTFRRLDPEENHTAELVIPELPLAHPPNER

[5] = biological target: T1, human PD-L1 expressed on cells (CT26 …); experiment: flow cytometry competition: inhibition of human PD-1-Fc binding to Raji-PD-L1 cells
[6] = biological target: T1, human PD-L1 expressed on cells (CT26 …); experiment: cell-based or functional assay
[7] = biological target: T2, 人PD-L1蛋白 (human PD-L1 protein); experiment: SPR, Biacore 8K, antibody captured on protein A sensor chip, PD-L1 protein as analyte

| Binder | EC50 [1] | EC50 [2] | EC50 [3] | EC50 [4] | IC50 [5] | Jurkat-PD-1/NFAT-luciferase报告基因活性 (luciferase bioluminescence), EC50 [6] | Kd [7] |
| --- | --- | --- | --- | --- | --- | --- | --- |
| B1 | 0.0422 µg/mL | 0.209 µg/mL | 0.0445 µg/mL | 0.216 µg/mL | 0.481 µg/mL | – | – |
| B2 | – | 0.378 µg/mL | 0.0864 µg/mL | 0.0651 µg/mL | 0.298 µg/mL | 0.0838 µg/mL | 0.4 nM |
